Data: patent US20080207488A1, “Method for Detecting Peptides Comprising a Cross-B Structure” (priority 2005, published 2008)

Experiments:
U937 monocytes = test: TNFα RNA upregulation in U937 monocytes (RT-PCR); format: cell-based, human; conditions: 1 h stimulation; 100 μg ml^−1 amyloid endostatin, 260 μg ml^−1 Hb-AGE; LPS 1 μg ml^−1; normalized to 18S
Procedure: U937 monocytes were cultured in six-wells plates. Cells were stimulated with buffer (negative control), 1 μg ml^−1 LPS (positive control), 100 μg ml^−1 amyloid endostatin^1,7, 260 μg ml^−1 Hb-AGE and 260 μg ml^−1 control Hb. After 1 h of stimulation, cells were put on ice. After washing RNA was isolated and quantified spectrophotometrically. Normalized amounts of RNA were used for 26 cycli of RT-PCR with human TNFα primer and 18 cycli of RT-PCR with ribosomal 18S primer for normalization purposes. DNA was analyzed on a 2% agarose gel.

tPA = biological target: T1, tPA (Homo sapiens, UniProt P00750); test: tPA ELISA with proteins pre-incubated with DXS500k; format: binding
T1 construct: purchased Boehringer-Ingelheim (Actilyse, Alteplase)
T1 sequence (P00750 36-562): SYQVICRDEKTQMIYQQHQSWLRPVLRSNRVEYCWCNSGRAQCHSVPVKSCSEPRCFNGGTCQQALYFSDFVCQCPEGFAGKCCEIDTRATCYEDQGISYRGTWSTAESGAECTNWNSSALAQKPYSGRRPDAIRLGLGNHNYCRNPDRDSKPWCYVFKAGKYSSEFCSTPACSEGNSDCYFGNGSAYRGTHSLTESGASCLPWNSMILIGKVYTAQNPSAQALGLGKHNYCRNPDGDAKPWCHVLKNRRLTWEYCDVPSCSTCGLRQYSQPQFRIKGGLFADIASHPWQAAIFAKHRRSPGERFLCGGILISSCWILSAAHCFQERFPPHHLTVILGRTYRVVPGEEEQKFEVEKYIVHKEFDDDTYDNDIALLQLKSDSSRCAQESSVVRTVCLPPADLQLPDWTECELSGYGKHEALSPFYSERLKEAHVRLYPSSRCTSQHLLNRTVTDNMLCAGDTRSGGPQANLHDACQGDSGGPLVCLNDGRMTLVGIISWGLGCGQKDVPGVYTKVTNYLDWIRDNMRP

factor XII = biological target: T2, factor XII (Homo sapiens, UniProt P00748); test: Factor XII auto-activation assay with substrate S-2222; format: biochemical; conditions: purified factor XII, 100 μg ml^−1 FP13 K157G, 10 μg ml^−1 Aβ(1-40) E22Q, 10 μg ml^−1 Hb-AGE, DXS500k 1 μg ml^−1 as comparator
T2 construct: purchased Calbiochem, EMD Biosciences #233490
T2 sequence (P00748 20-615): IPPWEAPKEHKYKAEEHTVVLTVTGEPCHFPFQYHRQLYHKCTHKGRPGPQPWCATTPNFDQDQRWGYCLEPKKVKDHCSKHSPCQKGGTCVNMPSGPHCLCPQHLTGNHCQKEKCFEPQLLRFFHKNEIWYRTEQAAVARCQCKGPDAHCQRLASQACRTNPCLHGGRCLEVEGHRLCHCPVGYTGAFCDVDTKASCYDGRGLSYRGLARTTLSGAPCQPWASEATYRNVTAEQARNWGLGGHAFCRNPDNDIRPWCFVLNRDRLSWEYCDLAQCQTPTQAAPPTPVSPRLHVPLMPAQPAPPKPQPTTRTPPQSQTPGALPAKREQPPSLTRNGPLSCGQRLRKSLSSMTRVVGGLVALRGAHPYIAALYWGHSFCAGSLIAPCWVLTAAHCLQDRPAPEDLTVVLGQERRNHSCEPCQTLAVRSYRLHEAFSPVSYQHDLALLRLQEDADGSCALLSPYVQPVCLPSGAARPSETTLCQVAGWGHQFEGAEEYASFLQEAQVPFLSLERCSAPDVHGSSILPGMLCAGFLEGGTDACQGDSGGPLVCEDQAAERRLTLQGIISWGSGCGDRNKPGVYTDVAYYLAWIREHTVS
Procedure: Plasmin (Pls) activity was assayed as described^7. Peptides and proteins that were tested for their stimulatory ability were regularly used at 100 μg ml^−1. […] Chromogenic substrate S-2251 (Chromogenix, Instrumentation Laboratory SpA, Milano, Italy) was used to measure Pls activity. Conversion of zymogen factor XII (#233490, Calbiochem, EMD Biosciences, Inc., San Diego, Calif.) to proteolytically active factor XII (factor XIIa) was assayed by measurement of the conversion of chromogenic substrate Chromozym-PK (Roche Diagnostics, Almere, The Netherlands) by kallikrein. Chromozym-PK was used at a concentration of 0.3 mM. Factor XII, human plasma prekallikrein (#529583, Calbiochem) and human plasma cofactor high-molecular weight kininogen (#422686, Calbiochem) were used at concentrations of 1 μg ml^−1. […] Assays were performed using microtiter plates (Costar, Cambridge, Mass., USA). […] The conversion of Chromozym-PK was recorded kinetically at 37° C. for at least 60 minutes. […] With S-2222, activation of factor XII in plasma was measured, using 60% v/v plasma, diluted with substrate and H2O with or without potential cofactor. Furthermore, auto-activation of factor XII was measured by incubating 53 μg ml^−1 purified factor XII in 50 mM Tris-HCl buffer pH 7.5 with 1 mM EDTA and 0.001% v/v Triton-X100, with S-2222 and H2O with or without potential cofactor.

Hb-AGE: human haemoglobin incubated 32 weeks at 37° C. with glucose-6-phosphate
TNFα RNA expression when compared to LPS (U937 monocytes): approximately 30%

factor XII: zymogen factor XII (Calbiochem), here pre-incubated with DXS500k
tPA binding to protein pre-incubated overnight with DXS500k (tPA): binds specifically

freshly dissolved FP13 K157G: FP13 K157G peptide freshly dissolved, not aggregated (KRLEVDIDIGIRS)
potency to induce factor XII auto-activation (factor XII): did not or hardly auto-activate factor XII
